Experimental data as given in paper PMC3198426.

T1: Interferon regulatory factor 3 (IRF3), as HAVI-Fluc-IRF3 and Rluc-IRF3-Flag, Q14653
T1 chain: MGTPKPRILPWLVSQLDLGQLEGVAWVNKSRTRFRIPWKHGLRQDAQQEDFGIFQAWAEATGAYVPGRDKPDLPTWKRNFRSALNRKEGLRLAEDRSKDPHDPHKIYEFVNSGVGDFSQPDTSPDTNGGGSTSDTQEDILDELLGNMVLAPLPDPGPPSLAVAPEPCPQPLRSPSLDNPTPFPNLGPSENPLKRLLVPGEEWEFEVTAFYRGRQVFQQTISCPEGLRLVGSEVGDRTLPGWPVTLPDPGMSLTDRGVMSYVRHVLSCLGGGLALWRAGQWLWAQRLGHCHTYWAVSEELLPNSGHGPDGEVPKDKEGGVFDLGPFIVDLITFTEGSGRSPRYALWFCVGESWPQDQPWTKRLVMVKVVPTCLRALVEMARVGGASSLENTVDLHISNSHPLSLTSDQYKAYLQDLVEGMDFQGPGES


Key:
[1] = biological target: Mitochondrial antiviral signaling protein (MAVS), as HAVI-Fluc-MAVS and Rluc-MAVS-Flag, Q7Z434; assay: pull-down; DLR-PD (dual luciferase reporter pull-down): both proteins co-expressed in HEK293; lysate in passive lysis buffer on Streptavidin MagneSphere Paramagnetic Particles in PBS, 30 m to 1 h, room temperature; two washes PBS with 1% Nonidet P 40, one with PBS; the biotinylated HAVI-tagged protein is held, Fluc and Rluc activity read on the beads; in some samples eYFP-MAVS or other activators (IRF3) or HCV …; conditions: remark: other sources report otherwise
[2] = biological target: MAVS cleaved by HCV NS3/4A (HAVI-Fluc-MAVS and Rluc-MAVS co-expressed with NS3/4A); assay: pull-down; DLR-PD (dual luciferase reporter pull-down): both proteins co-expressed in HEK293; lysate in passive lysis buffer on Streptavidin MagneSphere Paramagnetic Particles in PBS, 30 m to 1 h, room temperature; two washes PBS with 1% Nonidet P 40, one with PBS; the biotinylated HAVI-tagged protein is held, Fluc and Rluc activity read on the beads; in some samples eYFP-MAVS or other activators (IRF3) or HCV NS3/4A (MAVS) co-expressed
[3] = biological target: T1, Interferon regulatory factor 3 (IRF3), …; assay: pull-down; DLR-PD (dual luciferase reporter pull-down): both proteins co-expressed in HEK293; lysate in passive lysis buffer on Streptavidin MagneSphere Paramagnetic Particles in PBS, 30 m to 1 h, room temperature; two washes PBS with 1% Nonidet P 40, one with PBS; the biotinylated HAVI-tagged protein is held, Fluc and Rluc activity read on the beads; in some samples eYFP-MAVS or other activators (IRF3) or HCV …; conditions: remark: other sources report otherwise

Binder	activity ratio of Rluc/Fluc on the beads (Rluc/Fluc activity ratio) [1]	fold of the percentage of Rluc on the beads over the three negative controls [1]	percentage of Rluc on the beads compared with the cell lysate [1]	further results
Rluc-TRAF3-Flag, Q13114 1-568 (natural protein, here or on the partner: biotin on a specific lysine residue of the Avi tag (by co-expressed BirA), on the HAVI-Fluc copy) MESSKKMDSPGALQTNPPLKLHTDRSAGTPVFVPEQGGYKEKFVKTVEDKYKCEKCHLVLCSPKQTECGHRFCESCMAALLSSSSPKCTACQESIVKDKVFKDNCCKREILALQIYCRNESRGCAEQLMLGHLLVHLKNDCHFEELPCVRPDCKEKVLRKDLRDHVEKACKYREATCSHCKSQVPMIALQKHEDTDCPCVVVSCPHKCSVQTLLRSELSAHLSECVNAPSTCSFKRYGCVFQGTNQQIKAHEASSAVQHVNLLKEWSNSLEKKVSLLQNESVEKNKSIQSLHNQICSFEIEIERQKEMLRNNESKILHLQRVIDSQAEKLKELDKEIRPFRQNWEEADSMKSSVESLQNRVTELESVDKSAGQVARNTGLLESQLSRHDQMLSVHDIRLADMDLRFQVLETASYNGVLIWKIRDYKRRKQEAVMGKTLSLYSQPFYTGYFGYKMCARVYLNGDGMGKGTHLSLFFVIMRGEYDALLPWPFKQKVTLMLMDQGSSRRHLGDAFKPDPNSSSFKKPTGEMNIASGCPVFVAQTVLENGTYIKDDTIFIKVIVDTSDLPDP	2.29	> 26 fold	1.85%	
Rluc-TRAF3-Flag (natural protein) MESSKKMDSPGALQTNPPLKLHTDRSAGTPVFVPEQGGYKEKFVKTVEDKYKCEKCHLVLCSPKQTECGHRFCESCMAALLSSSSPKCTACQESIVKDKVFKDNCCKREILALQIYCRNESRGCAEQLMLGHLLVHLKNDCHFEELPCVRPDCKEKVLRKDLRDHVEKACKYREATCSHCKSQVPMIALQKHEDTDCPCVVVSCPHKCSVQTLLRSELSAHLSECVNAPSTCSFKRYGCVFQGTNQQIKAHEASSAVQHVNLLKEWSNSLEKKVSLLQNESVEKNKSIQSLHNQICSFEIEIERQKEMLRNNESKILHLQRVIDSQAEKLKELDKEIRPFRQNWEEADSMKSSVESLQNRVTELESVDKSAGQVARNTGLLESQLSRHDQMLSVHDIRLADMDLRFQVLETASYNGVLIWKIRDYKRRKQEAVMGKTLSLYSQPFYTGYFGYKMCARVYLNGDGMGKGTHLSLFFVIMRGEYDALLPWPFKQKVTLMLMDQGSSRRHLGDAFKPDPNSSSFKKPTGEMNIASGCPVFVAQTVLENGTYIKDDTIFIKVIVDTSDLPDP				activity ratio of Rluc/Fluc on the beads (100 ng NS3/4A vector) (Rluc/Fluc activity ratio) [2]: 0.956
Mitochondrial antiviral signaling protein (MAVS), as HAVI-Fluc-MAVS and Rluc-MAVS-Flag, Q7Z434 1-540 (natural protein, here or on the partner: biotin on a specific lysine residue of the Avi tag (by co-expressed BirA), on the HAVI-Fluc copy; biotin on a specific lysine residue of the Avi tag (by co-expressed BirA), on the HAVI-Fluc copy) MPFAEDKTYKYICRNFSNFCNVDVVEILPYLPCLTARDQDRLRATCTLSGNRDTLWHLFNTLQRRPGWVEYFIAALRGCELVDLADEVASVYQSYQPRTSDRPPDPLEPPSLPAERPGPPTPAAAHSIPYNSCREKEPSYPMPVQETQAPESPGENSEQALQTLSPRAIPRNPDGGPLESSSDLAALSPLTSSGHQEQDTELGSTHTAGATSSLTPSRGPVSPSVSFQPLARSTPRASRLPGPTGSVVSTGTSFSSSSPGLASAGAAEGKQGAESDQAEPIICSSGAEAPANSLPSKVPTTLMPVNTVALKVPANPASVSTVPSKLPTSSKPPGAVPSNALTNPAPSKLPINSTRAGMVPSKVPTSMVLTKVSASTVPTDGSSRNEETPAAPTPAGATGGSSAWLDSSSENRGLGSELSKPGVLASQVDSPFSGCFEDLAISASTSLGMGPCHGPEENEYKSEGTFGIHVAENPSIQLLEGNPGPPADPDGGPRPQADRKFQEREVPCHRPSPGALWLQVAVTGVLVVTLLVVLYRRRLH	0.28	> 6 fold	0.13%	
Interferon regulatory factor 3 (IRF3), as HAVI-Fluc-IRF3 and Rluc-IRF3-Flag, Q14653 1-427 (natural protein, here or on the partner: biotin on a specific lysine residue of the Avi tag (by co-expressed BirA), on the HAVI-Fluc copy; biotin on a specific lysine residue of the Avi tag (by co-expressed BirA), on the HAVI-Fluc copy) MGTPKPRILPWLVSQLDLGQLEGVAWVNKSRTRFRIPWKHGLRQDAQQEDFGIFQAWAEATGAYVPGRDKPDLPTWKRNFRSALNRKEGLRLAEDRSKDPHDPHKIYEFVNSGVGDFSQPDTSPDTNGGGSTSDTQEDILDELLGNMVLAPLPDPGPPSLAVAPEPCPQPLRSPSLDNPTPFPNLGPSENPLKRLLVPGEEWEFEVTAFYRGRQVFQQTISCPEGLRLVGSEVGDRTLPGWPVTLPDPGMSLTDRGVMSYVRHVLSCLGGGLALWRAGQWLWAQRLGHCHTYWAVSEELLPNSGHGPDGEVPKDKEGGVFDLGPFIVDLITFTEGSGRSPRYALWFCVGESWPQDQPWTKRLVMVKVVPTCLRALVEMARVGGASSLENTVDLHISNSHPLSLTSDQYKAYLQDLVEGMDFQGPGES				activity ratio of Rluc/Fluc on the beads (10 ng MAVS vector, as the sentence says) (Rluc/Fluc activity ratio) [3]: 0.01; activity ratio of Rluc/Fluc on the beads (100 ng MAVS vector) (Rluc/Fluc activity ratio) [3]: 0.75; fold increase of the IRF3 dimerization ratio (overexpressed IKKε) [3]: < 1000 fold; fold of the percentage of Rluc on the beads over the negative control (10 ng of the MAVS vector) [3]: 27 fold
